This note sets out measurements from patent publication US20260242419A1, “A CYCLIC PEPTIDE FOR TRAPPING INTERLEUKIN-1 BETA” (Merck Sharp & Dohme LLC, priority 2023, published 2026).

B1: SEQ ID NO: 98 (peptide)
peptide: cyclo([Bip(4'-COOH)][Ala(1-bicyclo(1.1.1)pentyl)][3Pal4CO2H]G[Pro(cis-4-F)][Trp(βS-Me,4-F)][Aib]EW[Aib][Ala(pyrimidin-5-yl)]Q[Dab]G[dPro(4R-Bzl(4-F))])
SMILES: C[C@@H](c1c[nH]c2cccc(F)c12)[C@@H]1NC(=O)[C@@H]2C[C@H](F)CN2C(=O)CNC(=O)[C@H](Cc2ccc(C(=O)O)nc2)NC(=O)[C@H](CC23CC(C2)C3)NC(=O)[C@H](Cc2ccc(-c3ccc(C(=O)O)cc3)cc2)NC(=O)[C@H]2C[C@@H](Cc3ccc(F)cc3)CN2C(=O)CNC(=O)[C@H](CCN)NC(=O)[C@H](CCC(N)=O)NC(=O)[C@H](Cc2cncnc2)NC(=O)C(C)(C)NC(=O)[C@H](Cc2c[nH]c3ccccc23)NC(=O)[C@H](CCC(=O)O)NC(=O)C(C)(C)NC1=O
B2: SEQ ID NO: 94 (peptide)
peptide: cyclo([Phe(4-(5-CO2H-2-pyrimidyl))][Ala(1-bicyclo(1.1.1)pentyl)][Phe(4-COOH)]G[Pro(cis-4-F)][Trp(βS-Me,4-F)][Aib]AW[Aib]SQ[Dab]G[dPro(4R-Bzl(4-F))])
SMILES: C[C@@H]1NC(=O)C(C)(C)NC(=O)[C@H]([C@@H](C)c2c[nH]c3cccc(F)c23)NC(=O)[C@@H]2C[C@H](F)CN2C(=O)CNC(=O)[C@H](Cc2ccc(C(=O)O)cc2)NC(=O)[C@H](CC23CC(C2)C3)NC(=O)[C@H](Cc2ccc(-c3ncc(C(=O)O)cn3)cc2)NC(=O)[C@H]2C[C@@H](Cc3ccc(F)cc3)CN2C(=O)CNC(=O)[C@H](CCN)NC(=O)[C@H](CCC(N)=O)NC(=O)[C@H](CO)NC(=O)C(C)(C)NC(=O)[C@H](Cc2c[nH]c3ccccc23)NC1=O
B3: SEQ ID NO: 93 (peptide)
peptide: cyclo([Bip(4'-COOH)][Ala(1-bicyclo(1.1.1)pentyl)][Phe(4-COOH)]G[Pro(cis-4-F)][Trp(βS-Me,4-F)][Aib]EW[Aib][Dap]Q[Dab]G[dPro(4R-(4-pyridylmethyl))])
SMILES: C[C@@H](c1c[nH]c2cccc(F)c12)[C@@H]1NC(=O)[C@@H]2C[C@H](F)CN2C(=O)CNC(=O)[C@H](Cc2ccc(C(=O)O)cc2)NC(=O)[C@H](CC23CC(C2)C3)NC(=O)[C@H](Cc2ccc(-c3ccc(C(=O)O)cc3)cc2)NC(=O)[C@H]2C[C@@H](Cc3ccncc3)CN2C(=O)CNC(=O)[C@H](CCN)NC(=O)[C@H](CCC(N)=O)NC(=O)[C@H](CN)NC(=O)C(C)(C)NC(=O)[C@H](Cc2c[nH]c3ccccc23)NC(=O)[C@H](CCC(=O)O)NC(=O)C(C)(C)NC1=O
B4: SEQ ID NO: 99 (peptide)
peptide: cyclo([F4bcpA][Ala(1-bicyclo(1.1.1)pentyl)][Phe(4-COOH)]G[Pro(cis-4-F)][Trp(βS-Me,4-F)][Aib]EW[Aib][Ala(pyrimidin-5-yl)]Q[Dab]G[dPro(4R-Bzl(4-F))])
SMILES: C[C@@H](c1c[nH]c2cccc(F)c12)[C@@H]1NC(=O)[C@@H]2C[C@H](F)CN2C(=O)CNC(=O)[C@H](Cc2ccc(C(=O)O)cc2)NC(=O)[C@H](CC23CC(C2)C3)NC(=O)[C@H](Cc2ccc(C34CC(C(=O)O)(C3)C4)cc2)NC(=O)[C@H]2C[C@@H](Cc3ccc(F)cc3)CN2C(=O)CNC(=O)[C@H](CCN)NC(=O)[C@H](CCC(N)=O)NC(=O)[C@H](Cc2cncnc2)NC(=O)C(C)(C)NC(=O)[C@H](Cc2c[nH]c3ccccc23)NC(=O)[C@H](CCC(=O)O)NC(=O)C(C)(C)NC1=O
B5: SEQ ID NO: 97 (peptide)
peptide: cyclo([Bip(4'-COOH)][Ala(1-bicyclo(1.1.1)pentyl)][Phe(4-COOH)]G[Pro(cis-4-F)][Trp(βS-Me,4-F)][αMeS]SW[Aib]SQ[Dab]G[dPro(4R-Bzl(4-F))])
SMILES: C[C@@H](c1c[nH]c2cccc(F)c12)[C@@H]1NC(=O)[C@@H]2C[C@H](F)CN2C(=O)CNC(=O)[C@H](Cc2ccc(C(=O)O)cc2)NC(=O)[C@H](CC23CC(C2)C3)NC(=O)[C@H](Cc2ccc(-c3ccc(C(=O)O)cc3)cc2)NC(=O)[C@H]2C[C@@H](Cc3ccc(F)cc3)CN2C(=O)CNC(=O)[C@H](CCN)NC(=O)[C@H](CCC(N)=O)NC(=O)[C@H](CO)NC(=O)C(C)(C)NC(=O)[C@H](Cc2c[nH]c3ccccc23)NC(=O)[C@H](CO)NC(=O)[C@](C)(CO)NC1=O
B6: SEQ ID NO: 92 (peptide)
peptide: cyclo([PyrimAla4Ph4CO2H][Ala(1-bicyclo(1.1.1)pentyl)][Phe(4-COOH)]G[Pro(cis-4-F)][Trp(βS-Me,4-F)][Aib]EW[Aib][Ala(pyrimidin-5-yl)]Q[Dab]G[dPro(4R-Bzl(4-F))])
SMILES: C[C@@H](c1c[nH]c2cccc(F)c12)[C@@H]1NC(=O)[C@@H]2C[C@H](F)CN2C(=O)CNC(=O)[C@H](Cc2ccc(C(=O)O)cc2)NC(=O)[C@H](CC23CC(C2)C3)NC(=O)[C@H](Cc2cnc(-c3ccc(C(=O)O)cc3)nc2)NC(=O)[C@H]2C[C@@H](Cc3ccc(F)cc3)CN2C(=O)CNC(=O)[C@H](CCN)NC(=O)[C@H](CCC(N)=O)NC(=O)[C@H](Cc2cncnc2)NC(=O)C(C)(C)NC(=O)[C@H](Cc2c[nH]c3ccccc23)NC(=O)[C@H](CCC(=O)O)NC(=O)C(C)(C)NC1=O
B7: SEQ ID NO: 95 (peptide)
peptide: cyclo([TyrEtNAc][4Pal][Phe(4-COOH)]G[Pro(cis-4-F)][Trp(βS-Me,4-F)][Aib]EW[Aib][4Pal]Q[Dab]G[dPro(4R-Bzl(4-F))])
SMILES: CC(=O)NCCOc1ccc(C[C@@H]2NC(=O)[C@H]3C[C@@H](Cc4ccc(F)cc4)CN3C(=O)CNC(=O)[C@H](CCN)NC(=O)[C@H](CCC(N)=O)NC(=O)[C@H](Cc3ccncc3)NC(=O)C(C)(C)NC(=O)[C@H](Cc3c[nH]c4ccccc34)NC(=O)[C@H](CCC(=O)O)NC(=O)C(C)(C)NC(=O)[C@H]([C@@H](C)c3c[nH]c4cccc(F)c34)NC(=O)[C@@H]3C[C@H](F)CN3C(=O)CNC(=O)[C@H](Cc3ccc(C(=O)O)cc3)NC(=O)[C@H](Cc3ccncc3)NC2=O)cc1
B8: SEQ ID NO: 96 (peptide)
peptide: cyclo([Bip(4'-COOH)][Ala(1-bicyclo(1.1.1)pentyl)][Phe(4-COOH)]G[Pro(cis-4-F)][Trp(βS-Me,4-F)][Aib]EW[Aib][Dap]QSG[dPro(4R-(4-pyridylmethyl))])
SMILES: C[C@@H](c1c[nH]c2cccc(F)c12)[C@@H]1NC(=O)[C@@H]2C[C@H](F)CN2C(=O)CNC(=O)[C@H](Cc2ccc(C(=O)O)cc2)NC(=O)[C@H](CC23CC(C2)C3)NC(=O)[C@H](Cc2ccc(-c3ccc(C(=O)O)cc3)cc2)NC(=O)[C@H]2C[C@@H](Cc3ccncc3)CN2C(=O)CNC(=O)[C@H](CO)NC(=O)[C@H](CCC(N)=O)NC(=O)[C@H](CN)NC(=O)C(C)(C)NC(=O)[C@H](Cc2c[nH]c3ccccc23)NC(=O)[C@H](CCC(=O)O)NC(=O)C(C)(C)NC1=O

Starred links: 1 amine or outer side, 2 acyl side, 3 side chain; linkers in the order of their positions; H or OH if unused. Non-standard residues stand in square brackets, D forms with d. F4bcpA = 3-[4-[(2S)-2-amino-2-carboxy-ethyl]phenyl]bicyclo[1.1.1]pentane-1-carboxylic acid, O=C([C@H](Cc1ccc(C23CC(C(=O)[*:3])(C2)C3)cc1)N[*:1])[*:2]; PyrimAla4Ph4CO2H = 4-[5-[(2S)-2-amino-2-carboxy-ethyl]pyrimidin-2-yl]benzoic acid, O=C([C@H](Cc1cnc(-c2ccc(C(=O)[*:3])cc2)nc1)N[*:1])[*:2]; 3Pal4CO2H = 5-[(2S)-2-amino-2-carboxy-ethyl]pyridine-2-carboxylic acid, O=C([C@H](Cc1ccc(C(=O)[*:3])nc1)N[*:1])[*:2]; TyrEtNAc = (2S)-3-[4-(2-acetamidoethoxy)phenyl]-2-amino-propanoic acid, CC(=O)NCCOc1ccc(C[C@H](N[*:1])C(=O)[*:2])cc1; Phe(4-(5-CO2H-2-pyrimidyl)) = N[C@@H](Cc1ccc(-c2ncc(C(=O)O)cn2)cc1)C(=O)O; dPro(4R-(4-pyridylmethyl)) = O=C(O)[C@H]1C[C@@H](Cc2ccncc2)CN1; Ala(piperidin-4-yl) = O=C([C@H](CC1CCN([*:3])CC1)N[*:1])[*:2]; Trp(βS-Me,4-F) = C[C@@H](c1c[nH]c2cccc(F)c12)[C@H](N)C(=O)O; Bip(4'-COOH) = N[C@@H](Cc1ccc(-c2ccc(C(=O)O)cc2)cc1)C(=O)O; Ala(1-bicyclo(1.1.1)pentyl) = N[C@@H](CC12CC(C1)C2)C(=O)O; dPro(4R-Bzl(4-F)) = O=C(O)[C@H]1C[C@@H](Cc2ccc(F)cc2)CN1; Ala(pyrimidin-5-yl) = N[C@@H](Cc1cncnc1)C(=O)O; Phe(4-COOH) = N[C@@H](Cc1ccc(C(=O)O)cc1)C(=O)O; Pro(cis-4-F) = O=C(O)[C@@H]1C[C@H](F)CN1; 4Pal = N[C@@H](Cc1ccncc1)C(=O)O; αMeS = C[C@](N)(CO)C(=O)O; Dab = NCC[C@H](N)C(=O)O; Dap = NC[C@H](N)C(=O)O; Aib = CC(C)(N)C(=O)O

The target of the first assay is Recombinant human IL-1β (BioLegend 579404) (human, UniProt P01584 117-269). The experiment in a line: cell-based or functional assay.
Consider B1, for which the “MRC5 IC50” value amounted to 0.058 nM.
For B2, the “MRC5 IC50” value worked out at 0.096 nM.
The same measure, in the same setting: to B3 belongs 0.059 nM.
In the case of B4, the “MRC5 IC50” value was 0.031 nM.
Same read-out and setting: under B5 stands 0.036 nM.
Same read-out and setting: under B6 stands 0.07 nM.
Same read-out and setting: under B7 stands 0.054 nM; under B8, 0.067 nM.

For a further assay the target is unchanged. The experiment in a line: cell-based or functional assay. The source holds these as a separate data set.
As to cyclo([Bip(4'-COOH)][4Pal][Phe(4-COOH)]G[Pro(cis-4-F)][Trp(βS-Me,4-F)][Aib]EW[Aib][Ala(piperidin-4-yl)]QSG[dPro(4R-Bzl(4-F))]) (ring closure inferred) [SEQ ID NO: 121], the “MRC5 IC50” value came to 0.029 nM.
